Results on one molecule are retold here after publication PMC12549904 (Communications Biology, 2025).

In this test the target is Biotinylated RpoS (S. Typhimurium ATCC 14028S, UniProt D0ZVL4 1-330, biotin (EZ-Link-Biotin; sites not stated)). The test can be described thus: BLI. A general note: Biolayer interferometry detects binding as a change in optical thickness at a sensor tip.
Biotinylated RpoS, sequence (D0ZVL4 whole entry): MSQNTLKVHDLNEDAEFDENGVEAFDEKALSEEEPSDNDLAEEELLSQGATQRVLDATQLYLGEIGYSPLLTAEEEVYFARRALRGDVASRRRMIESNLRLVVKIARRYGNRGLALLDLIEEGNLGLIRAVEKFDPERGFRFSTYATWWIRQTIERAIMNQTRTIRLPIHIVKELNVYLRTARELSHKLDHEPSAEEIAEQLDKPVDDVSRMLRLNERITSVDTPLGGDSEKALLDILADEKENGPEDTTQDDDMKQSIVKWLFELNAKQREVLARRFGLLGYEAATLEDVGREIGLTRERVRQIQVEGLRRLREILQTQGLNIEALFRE

B1: MicN (purified, His-tag cleaved) (natural protein, S. Typhimurium ATCC 14028S)
chain: MKEGFYWIQHNGRVQVAYYTHGVTEDLETGQTIIGVWHLTQGDDICHNGEAEILAGPLEPPI
The term Kd denotes the concentration at which binding is half-saturated. B1 had a dissociation constant Kd of 0.0436 µM.
